Here are results for 1 molecule from US7413903B2, “Methods of regulating differentiation in stem cells” (ES Cell International PTE Ltd., priority 2002, dated 2008).

For the experiment, the system named is hES cells. The experiment can be described thus: GCTM-2 quantification (alkaline phosphatase-coupled secondary antibody, OD 405 nm). Format: cell-based, human. The source says:
hES-3 cells plated with MEF, were fixed in ethanol and immunostained with GCTM-2 and then with an alkaline phosphatase-coupled secondary antibody (Dako). The activity of alkaline phosphatase was detected by adding a solution of 4-nitrophenyl phosphate (Roche, Mannheim, Germany), followed by reading the optical density (OD) at 405 nm. In order to validate the technique as a relevant indicator of the proportion of GCTM-2 positive cells, standard curves were done with the teratocarcinoma cell line GCT27C4, known to express GCTM-2.
Cells were fixed in 100% ethanol and immunostained with GCTM-2 followed by alkaline phosphatase-coupled secondary antibodies (Dako). Alkaline phosphatase activity was detected by adding a solution of 4-nitrophenyl phosphate (Roche), and the concentration of the reaction product was determined by reading the optical density (OD) at 405 nm. In order to validate the technique as an accurate indicator of the proportion of GCTM-2 positive cells, standard curves were carried out with the embryonal carcinoma cell line GCT27C4, known to express GCTM-2 ^20.

B1: PDGF-BB: Human platelet-derived growth factor isoform BB (protein, UniProt P01127 82-190, looked up)
Platelet-derived growth …: SLGSLTIAEPAMIAECKTRTEVFEISRRLIDRTNANFLVWPPCVEVQRCSGCCNNRNVQCRPTQVQLRPVQVRKIEIVRKKPIFKKATVTLEDHLACKCETVAAARPVT
Take B1: the “GCTM2 levels, PDGF isoform added with S1P” value (Example 1, isoform added with S1P) is given as 182.0±26.0 % of control. Besides, the “GCTM2 expression, PDGF isoform with S1P” value (Example 2, 2 weeks, isoform 20 ng/ml together with S1P) was 294.3±77.3 % of control.
